# Results from publication PMC7821693, “Revealing biophysical properties of KfrA-type proteins as a novel class of cytoskeletal, coiled-coil plasmid-encoded proteins”.
# Values joined by “and” are separate entries in the source; they are usually repeats but may differ in a detail not shown here. Equal entries are not always repeated.
# T1: KfrA R751 (His6-KfrAR751) (IncP-1beta plasmid R751, UniProt P71173 1-342)
# T1 sequence: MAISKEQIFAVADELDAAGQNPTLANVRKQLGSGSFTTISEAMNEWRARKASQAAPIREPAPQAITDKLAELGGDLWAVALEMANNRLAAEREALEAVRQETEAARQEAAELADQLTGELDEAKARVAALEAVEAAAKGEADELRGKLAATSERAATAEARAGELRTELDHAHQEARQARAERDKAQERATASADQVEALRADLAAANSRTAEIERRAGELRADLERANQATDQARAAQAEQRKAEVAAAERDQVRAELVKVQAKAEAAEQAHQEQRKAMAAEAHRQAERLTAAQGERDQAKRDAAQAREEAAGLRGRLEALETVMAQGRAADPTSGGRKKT
# T2: KfrA RA3 (His6-KfrARA3) (IncU plasmid RA3, UniProt Q209P3 1-355)
# T2 sequence: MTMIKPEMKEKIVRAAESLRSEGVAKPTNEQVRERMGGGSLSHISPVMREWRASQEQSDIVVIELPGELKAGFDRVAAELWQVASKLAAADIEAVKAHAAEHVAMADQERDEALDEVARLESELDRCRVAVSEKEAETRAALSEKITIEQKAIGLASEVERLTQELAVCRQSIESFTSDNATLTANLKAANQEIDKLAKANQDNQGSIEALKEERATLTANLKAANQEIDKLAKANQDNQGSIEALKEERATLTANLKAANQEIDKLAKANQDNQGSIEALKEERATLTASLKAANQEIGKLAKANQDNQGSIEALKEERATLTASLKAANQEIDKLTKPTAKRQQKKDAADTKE
# B1: OKR751 (#15/#16), 50 bp (dsDNA)
# DNA 1: CTTGCGTAGTGTTGTATGTTGTAGTATGCTACACGCTACAACATACAACC
# DNA 2: GGTTGTATGTTGTAGCGTGTAGCATACTACAACATACAACACTACGCAAG
# B2: OKRA3 (#17/#18), 60 bp (dsDNA)
# DNA 1: TCCGTTGTATTGTATGTATTGTATGTATTGTATTAAAATACAATACATACAATACAGGGA
# DNA 2: TCCCTGTATTGTATGTATTGTATTTTAATACAATACATACAATACATACAATACAACGGA
# B3: OG5/OD5 (#9/#10), specific competitor (dsDNA)
# DNA 1: TATGTATTGTATGTATTGTATTAAAATACAATACATACAATACAGG
# DNA 2: CCTGTATTGTATGTATTGTATTTTAATACAATACATACAATACATA
# Columns and labels:
# [1] = biological target: His6-KfrA_(R751) (plasmid R751 (IncP-1β)); experiment: cross-linking; glutaraldehyde at different concentrations, protein 0.1 mg/ml, 20 min at 25 °C, 0.05 M bicine-NaOH pH 8.5, 0.1 mM DTT, 0.4 M NaCl; products on SDS-PAGE
# [2] = biological target: T1, KfrA R751 (His6-KfrAR751); experiment: EMSA; complex unstable, smear; two complexes; EMSA: 50 mM Tris-HCl pH 8.0, 10 mM MgCl2, 50 mM NaCl, 10 pmol DNA, 30 min at 37 C (legend: 25 C), 2.5% agarose in 0.5x TBE; TEM: 0.3 mg/ml protein, 50 mM sodium phosphate pH 7.5, 150 mM NaCl; details: protein: recombinant; chain copies: 2; blunt
# KfrA RA3 (His6-KfrARA3) [3] = biological target: T2, KfrA RA3 (His6-KfrARA3); experiment: EMSA; two complexes, some smear; EMSA: 50 mM Tris-HCl pH 8.0, 10 mM MgCl2, 50 mM NaCl, 10 pmol DNA, 30 min at 37 C (legend: 25 C), 2.5% agarose in 0.5x TBE; TEM: 0.3 mg/ml protein, 50 mM sodium phosphate pH 7.5, 150 mM NaCl; details: protein: recombinant; chain copies: 2; blunt
# KfrA RA3 (His6-KfrARA3) [4] = biological target: T2, KfrA RA3 (His6-KfrARA3); experiment: competition; unlabeled competitor vs labeled OKRA3; EMSA: 50 mM Tris-HCl pH 8.0, 10 mM MgCl2, 50 mM NaCl, 10 pmol DNA, 30 min at 37 C (legend: 25 C), 2.5% agarose in 0.5x TBE; TEM: 0.3 mg/ml protein, 50 mM sodium phosphate pH 7.5, 150 mM NaCl; details: protein: recombinant; chain copies: 2; blunt
molecule,measurement,setting,value
His6-KfrA_(R751) (natural protein),stoichiometry N,[1],2 and 4
B1,binding result,[2],binds
B2,binding result,KfrA RA3 (His6-KfrARA3) [3],binds
B3,binding result,KfrA RA3 (His6-KfrARA3) [4],binds
